This note sets out measurements from PMC12871931, “The importin‐alpha superfamily engages in ethylene signaling by shuttling ETHYLENE INSENSITIVE 2 from the endoplasmic reticulum to the nucleus” (The Febs Journal, 2025).

This test addresses ΔIBB_IMPα1 (importin α1 lacking the IBB domain), Arabidopsis thaliana, recombinant (Arabidopsis thaliana). Description: BLI; Octet K2; biotinylated ΔIBB_IMPα1 or IMPα4 loaded (15 μM, 600 s) on streptavidin biosensors; peptides/protein in solution; 100 mM Tris pH 7.0, 100 mM KCl, 0.01% Tween 20; room temperature; 300 s association, 300 s dissociation; dose response curves, 1:2 heterogeneous ligand model.

B1: GB1‐AtEIN2C^1215–1281 (domain or fragment)
chain: KGKCTTAVTLLDLIKDVEMAISCRKGRTGTAAGDVAFPKGKENLASVLKRYKRRLSNKPVGMNQDGP
Usually Kd stands for the free concentration of one partner at which half of the binding sites on the other are occupied at equilibrium, for simple one-to-one binding. B1: the Kd came to 8.8 µM. Next, LKRYKRRL [NOP‐1 (EIN2 NLS peptide, EIN2 residues 1262–1269)]: 2.5 µM; KDVEMAISCRKGRTGTAAGDVAFPKGKENLASVLKRYKRRL [N41P‐1 (EIN2 residues 1229–1269)]: 8.1 µM.
